The values below are quoted from earlier work in US20090068653A1, “BIOCHEMICAL AND GENETIC ANALYSIS FOR PREDICTION OF BREAST CANCER RISK” (priority 2006, published 2009).

Where two headings read alike, the source gives them in different places.

Usually Km stands for the concentration of substrate that gives half-maximal velocity.

For data set [1] the following is noted: cited from earlier work.
Another data set has as its system renal cancer. The note with it: hamster, in vivo; cited from earlier work.
Another data set has as its system CYP1B1. The note with it: cited from earlier work.

In the case of `CC/C(=C(\c1ccccc1)c1ccc(OCCNC)cc1)c1ccccc1` [N-desmethyl tamoxifen], the “average steady-state plasma concentration” value is 336 ng/mL in data set [1] (10 mg tamoxifen twice daily for 3 months, patients) and 353 ng/mL in data set [1] (20 mg tamoxifen once daily for 3 months). For the same molecule, in data set [1] (in vivo), the “time to steady state concentrations after initiation of therapy” value is “about 8 weeks”. The “average peak plasma concentration” value in data set [1] (single oral dose of 20 mg tamoxifen) is listed as 15 ng/mL. For the same molecule, in data set [1] (suggested by time to steady state), the half-life result is recorded as “approximately 14 days”.

Take `C[C@]12CC[C@@H]3c4cc(O)c(O)cc4CC[C@H]3[C@@H]1CCC2=O` [2-OHE1]: the “induction of renal cancer” value in the data set on renal cancer is reported as “not”.

B1: 48Gly-119Ala-432Val-453Asn: CYP1B1 variant enzyme (protein, UniProt Q16678 1-543, looked up, variant R48G)
Cytochrome P450 1B1: MGTSLSPNDPWPLNPLSIQQTTLLLLLSVLATVHVGQRLLRQRRRQLGSAPPGPFAWPLIGNAAAVGQAAHLSFARLARRYGDVFQIRLGSCPIVVLNGERAIHQALVQQGSAFADRPAFASFRVVSGGRSMAFGHYSEHWKVQRRAAHSMMRNFFTRQPRSRQVLEGHVLSEARELVALLVRGSADGAFLDPRPLTVVAVANVMSAVCFGCRYSHDDPEFRELLSHNEEFGRTVGAGSLVDVMPWLQYFPNPVRTVFREFEQLNRNFSNFILDKFLRHCESLRPGAAPRDMMDAFILSAEKKAAGDSHGGGARLDLENVPATITDIFGASQDTLSTALQWLLLLFTRYPDVQTRVQAELDQVVGRDRLPCMGDQPNLPYVLAFLYEAMRFSSFVPVTIPHATTANTSVLGYHIPKDTVVFVNQWSVNHDPLKWPNPENFDPARFLDKDGLINKDLTSRVMIFSVGKRRCIGEELSKMQLFLFISILAHQCDFRANPNEPAKMNFSYGLTIKPKSFKVNVTLRESMELLDSAVQNLQAKETCQ
Consider B1, for which the Michaelis-Menten constant (Km) in the data set with CYP1B1 (reaction E2 → 2-OHE2, CYP1B1) was 12 µM; in the data set on CYP1B1 (reaction E2 → 4-OHE2, CYP1B1), 6.6 µM.

B2: 48Gly-119Ser-432Val-453Ser: CYP1B1 variant enzyme (protein, UniProt Q16678 1-543, looked up, variant R48G A119S N453S)
Cytochrome P450 1B1: MGTSLSPNDPWPLNPLSIQQTTLLLLLSVLATVHVGQRLLRQRRRQLGSAPPGPFAWPLIGNAAAVGQAAHLSFARLARRYGDVFQIRLGSCPIVVLNGERAIHQALVQQGSAFADRPSFASFRVVSGGRSMAFGHYSEHWKVQRRAAHSMMRNFFTRQPRSRQVLEGHVLSEARELVALLVRGSADGAFLDPRPLTVVAVANVMSAVCFGCRYSHDDPEFRELLSHNEEFGRTVGAGSLVDVMPWLQYFPNPVRTVFREFEQLNRNFSNFILDKFLRHCESLRPGAAPRDMMDAFILSAEKKAAGDSHGGGARLDLENVPATITDIFGASQDTLSTALQWLLLLFTRYPDVQTRVQAELDQVVGRDRLPCMGDQPNLPYVLAFLYEAMRFSSFVPVTIPHATTANTSVLGYHIPKDTVVFVNQWSVNHDPLKWPNPENFDPARFLDKDGLISKDLTSRVMIFSVGKRRCIGEELSKMQLFLFISILAHQCDFRANPNEPAKMNFSYGLTIKPKSFKVNVTLRESMELLDSAVQNLQAKETCQ
With B2, the Km with CYP1B1 (reaction E2 → 2-OHE2, CYP1B1) was 34 µM; with CYP1B1 (reaction E2 → 4-OHE2, CYP1B1), 15 µM.

B3: 48Arg-119Ser-432Val-453Asn: CYP1B1 variant enzyme (protein, UniProt Q16678 1-543, looked up, variant A119S)
Cytochrome P450 1B1: MGTSLSPNDPWPLNPLSIQQTTLLLLLSVLATVHVGQRLLRQRRRQLRSAPPGPFAWPLIGNAAAVGQAAHLSFARLARRYGDVFQIRLGSCPIVVLNGERAIHQALVQQGSAFADRPSFASFRVVSGGRSMAFGHYSEHWKVQRRAAHSMMRNFFTRQPRSRQVLEGHVLSEARELVALLVRGSADGAFLDPRPLTVVAVANVMSAVCFGCRYSHDDPEFRELLSHNEEFGRTVGAGSLVDVMPWLQYFPNPVRTVFREFEQLNRNFSNFILDKFLRHCESLRPGAAPRDMMDAFILSAEKKAAGDSHGGGARLDLENVPATITDIFGASQDTLSTALQWLLLLFTRYPDVQTRVQAELDQVVGRDRLPCMGDQPNLPYVLAFLYEAMRFSSFVPVTIPHATTANTSVLGYHIPKDTVVFVNQWSVNHDPLKWPNPENFDPARFLDKDGLINKDLTSRVMIFSVGKRRCIGEELSKMQLFLFISILAHQCDFRANPNEPAKMNFSYGLTIKPKSFKVNVTLRESMELLDSAVQNLQAKETCQ
B3: the Michaelis constant (Km) with CYP1B1 (reaction E2 → 2-OHE2, CYP1B1) was 19 µM; in the data set on CYP1B1 (reaction E2 → 4-OHE2, CYP1B1), 9.3 µM.

B4: 48Gly-119Ala-432Val-453Ser: CYP1B1 variant enzyme (protein, UniProt Q16678 1-543, looked up, variant R48G N453S)
Cytochrome P450 1B1: MGTSLSPNDPWPLNPLSIQQTTLLLLLSVLATVHVGQRLLRQRRRQLGSAPPGPFAWPLIGNAAAVGQAAHLSFARLARRYGDVFQIRLGSCPIVVLNGERAIHQALVQQGSAFADRPAFASFRVVSGGRSMAFGHYSEHWKVQRRAAHSMMRNFFTRQPRSRQVLEGHVLSEARELVALLVRGSADGAFLDPRPLTVVAVANVMSAVCFGCRYSHDDPEFRELLSHNEEFGRTVGAGSLVDVMPWLQYFPNPVRTVFREFEQLNRNFSNFILDKFLRHCESLRPGAAPRDMMDAFILSAEKKAAGDSHGGGARLDLENVPATITDIFGASQDTLSTALQWLLLLFTRYPDVQTRVQAELDQVVGRDRLPCMGDQPNLPYVLAFLYEAMRFSSFVPVTIPHATTANTSVLGYHIPKDTVVFVNQWSVNHDPLKWPNPENFDPARFLDKDGLISKDLTSRVMIFSVGKRRCIGEELSKMQLFLFISILAHQCDFRANPNEPAKMNFSYGLTIKPKSFKVNVTLRESMELLDSAVQNLQAKETCQ
For B4, the Km with CYP1B1 (reaction E2 → 2-OHE2, CYP1B1) was 75 µM; with CYP1B1 (reaction E2 → 4-OHE2, CYP1B1), 28 µM.

B5: 48Gly-119Ser-432Val-453Asn: CYP1B1 variant enzyme (protein, UniProt Q16678 1-543, looked up, variant R48G A119S)
Cytochrome P450 1B1: MGTSLSPNDPWPLNPLSIQQTTLLLLLSVLATVHVGQRLLRQRRRQLGSAPPGPFAWPLIGNAAAVGQAAHLSFARLARRYGDVFQIRLGSCPIVVLNGERAIHQALVQQGSAFADRPSFASFRVVSGGRSMAFGHYSEHWKVQRRAAHSMMRNFFTRQPRSRQVLEGHVLSEARELVALLVRGSADGAFLDPRPLTVVAVANVMSAVCFGCRYSHDDPEFRELLSHNEEFGRTVGAGSLVDVMPWLQYFPNPVRTVFREFEQLNRNFSNFILDKFLRHCESLRPGAAPRDMMDAFILSAEKKAAGDSHGGGARLDLENVPATITDIFGASQDTLSTALQWLLLLFTRYPDVQTRVQAELDQVVGRDRLPCMGDQPNLPYVLAFLYEAMRFSSFVPVTIPHATTANTSVLGYHIPKDTVVFVNQWSVNHDPLKWPNPENFDPARFLDKDGLINKDLTSRVMIFSVGKRRCIGEELSKMQLFLFISILAHQCDFRANPNEPAKMNFSYGLTIKPKSFKVNVTLRESMELLDSAVQNLQAKETCQ
Regarding B5, the Km is 13 µM in the data set with CYP1B1 (reaction E2 → 2-OHE2, CYP1B1) and 5.5 µM in the data set with CYP1B1 (reaction E2 → 4-OHE2, CYP1B1).

B6: 48Arg-119Ala-432Val-453Asn (wt): wild-type CYP1B1 enzyme (protein, UniProt Q16678 1-543, looked up)
Cytochrome P450 1B1: MGTSLSPNDPWPLNPLSIQQTTLLLLLSVLATVHVGQRLLRQRRRQLRSAPPGPFAWPLIGNAAAVGQAAHLSFARLARRYGDVFQIRLGSCPIVVLNGERAIHQALVQQGSAFADRPAFASFRVVSGGRSMAFGHYSEHWKVQRRAAHSMMRNFFTRQPRSRQVLEGHVLSEARELVALLVRGSADGAFLDPRPLTVVAVANVMSAVCFGCRYSHDDPEFRELLSHNEEFGRTVGAGSLVDVMPWLQYFPNPVRTVFREFEQLNRNFSNFILDKFLRHCESLRPGAAPRDMMDAFILSAEKKAAGDSHGGGARLDLENVPATITDIFGASQDTLSTALQWLLLLFTRYPDVQTRVQAELDQVVGRDRLPCMGDQPNLPYVLAFLYEAMRFSSFVPVTIPHATTANTSVLGYHIPKDTVVFVNQWSVNHDPLKWPNPENFDPARFLDKDGLINKDLTSRVMIFSVGKRRCIGEELSKMQLFLFISILAHQCDFRANPNEPAKMNFSYGLTIKPKSFKVNVTLRESMELLDSAVQNLQAKETCQ
On to B6, for which the Km in the data set with CYP1B1 (reaction E2 → 2-OHE2, CYP1B1) is 24 µM; with CYP1B1 (reaction E2 → 4-OHE2, CYP1B1), 14 µM.

B7: 48Arg-119Ser-432Val-453Ser: CYP1B1 variant enzyme (protein, UniProt Q16678 1-543, looked up, variant A119S N453S)
Cytochrome P450 1B1: MGTSLSPNDPWPLNPLSIQQTTLLLLLSVLATVHVGQRLLRQRRRQLRSAPPGPFAWPLIGNAAAVGQAAHLSFARLARRYGDVFQIRLGSCPIVVLNGERAIHQALVQQGSAFADRPSFASFRVVSGGRSMAFGHYSEHWKVQRRAAHSMMRNFFTRQPRSRQVLEGHVLSEARELVALLVRGSADGAFLDPRPLTVVAVANVMSAVCFGCRYSHDDPEFRELLSHNEEFGRTVGAGSLVDVMPWLQYFPNPVRTVFREFEQLNRNFSNFILDKFLRHCESLRPGAAPRDMMDAFILSAEKKAAGDSHGGGARLDLENVPATITDIFGASQDTLSTALQWLLLLFTRYPDVQTRVQAELDQVVGRDRLPCMGDQPNLPYVLAFLYEAMRFSSFVPVTIPHATTANTSVLGYHIPKDTVVFVNQWSVNHDPLKWPNPENFDPARFLDKDGLISKDLTSRVMIFSVGKRRCIGEELSKMQLFLFISILAHQCDFRANPNEPAKMNFSYGLTIKPKSFKVNVTLRESMELLDSAVQNLQAKETCQ
B7: the Km in the data set on CYP1B1 (reaction E2 → 2-OHE2, CYP1B1) was 36 µM; in the data set with CYP1B1 (reaction E2 → 4-OHE2, CYP1B1), 17 µM.

B8: 48Arg-119Ala-432Val-453Ser: CYP1B1 variant enzyme (protein, UniProt Q16678 1-543, looked up, variant N453S)
Cytochrome P450 1B1: MGTSLSPNDPWPLNPLSIQQTTLLLLLSVLATVHVGQRLLRQRRRQLRSAPPGPFAWPLIGNAAAVGQAAHLSFARLARRYGDVFQIRLGSCPIVVLNGERAIHQALVQQGSAFADRPAFASFRVVSGGRSMAFGHYSEHWKVQRRAAHSMMRNFFTRQPRSRQVLEGHVLSEARELVALLVRGSADGAFLDPRPLTVVAVANVMSAVCFGCRYSHDDPEFRELLSHNEEFGRTVGAGSLVDVMPWLQYFPNPVRTVFREFEQLNRNFSNFILDKFLRHCESLRPGAAPRDMMDAFILSAEKKAAGDSHGGGARLDLENVPATITDIFGASQDTLSTALQWLLLLFTRYPDVQTRVQAELDQVVGRDRLPCMGDQPNLPYVLAFLYEAMRFSSFVPVTIPHATTANTSVLGYHIPKDTVVFVNQWSVNHDPLKWPNPENFDPARFLDKDGLISKDLTSRVMIFSVGKRRCIGEELSKMQLFLFISILAHQCDFRANPNEPAKMNFSYGLTIKPKSFKVNVTLRESMELLDSAVQNLQAKETCQ
For B8, the Km with CYP1B1 (reaction E2 → 2-OHE2, CYP1B1) is 49 µM; in the data set with CYP1B1 (reaction E2 → 4-OHE2, CYP1B1), 21 µM.
